Literature values in article PMC9772450, “Gel-forming antagonist provides a lasting effect on CGRP-induced vasodilation” (Frontiers in Pharmacology, 2022).

B1: eptinezumab: anti-CGRP antibody (antibody, chains of the INN, looked up, V domains shown)
VH: EVQLVESGGGLVQPGGSLRLSCAVSGIDLSGYYMNWVRQAPGKGLEWVGVIGINGATYYASWAKGRFTISRDNSKTTVYLQMNSLRAEDTAVYFCARGDIWGQGTLVTVSS
VL: QVLTQSPSSLSASVGDRVTINCQASQSVYHNTYLAWYQQKPGKVPKQLIYDASTLASGVPSRFSGSGSGTDFTLTISSLQPEDVATYYCLGSYDCTNGDCFVFGGGTKVEIK
B2: erenumab: anti-CGRP receptor antibody (antibody, chains of the INN, looked up, V domains shown)
VH: QVQLVESGGGVVQPGRSLRLSCAASGFTFSSFGMHWVRQAPGKGLEWVAVISFDGSIKYSVDSVKGRFTISRDNSKNTLFLQMNSLRAEDTAVYYCARDRLNYYDSSGYYHYKYYGMAVWGQGTTVTVSS
VL: QSVLTQPPSVSAAPGQKVTISCSGSSSNIGNNYVSWYQQLPGTAPKLLIYDNNKRPSGIPDRFSGSKSGTSTTLGITGLQTGDEADYYCGTWDSRLSAVVFGGGTKLTVL
B3: galcanezumab: anti-CGRP antibody (antibody, chains of the INN, looked up, V domains shown)
VH: QVQLVQSGAEVKKPGSSVKVSCKASGYTFGNYWMQWVRQAPGQGLEWMGAIYEGTGKTVYIQKFADRVTITADKSTSTAYMELSSLRSEDTAVYYCARLSDYVSGFGYWGQGTTVTVSS
VL: DIQMTQSPSSLSASVGDRVTITCRASKDISKYLNWYQQKPGKAPKLLIYYTSGYHSGVPSRFSGSGSGTDFTLTISSLQPEDFATYYCQQGDALPPTFGGGTKVEIK

How the values were obtained:
migraine = settings: 31% at baseline; 40–50% in the placebo group; ref Cady et al., 2022
Excerpt: Migraine is a common complex neurovascular disorder that is manifested as episodic and predominantly unilateral throbbing headache with hypersensitivity to light, sound, and movement ([Erdener and Dalkara, 2014]; [Schuster and Rapoport, 2016]). According to the World Health Organization, 324 million people worldwide suffer from incapacitating migraine in 2008. In ∼ one-third of patients, migraine headaches are accompanied by an aura involving neurological symptoms such as transient visual, sensory, or motor disturbances ([Goadsby et al., 2002]). In the US, it was reported that 15% of Americans ...

[1] = test system: capsaicin-induced dermal blood flow; settings: in patients; ref Vu et al., 2017
Excerpt: It is known that anti-CGRP gepants could occupy a binding site close to the interface of the N-terminal domains of CLR and RAMP1, and act by allosteric regulation ([Miller et al., 2010]). Although the gepants compounds have low IC50 values in receptor activation assays in vitro, it is well documented that gepants need high concentrations to bloc ...

[2] = antibodies; ref https://go.drugbank.com/drugs

Molecule	Proportion of patients with moderate/maximal optimization at week four (migraine) [%]	Concentration required for 50% inhibition of capsaicin-induced dermal blood flow [1] [mg/L]	Concentration required for 99% inhibition of capsaicin-induced dermal blood flow [1] [mg/L]	Volume of distribution [2] [L]
B1	58			
B2		0.255	1.134	3.86
B3				7.3
